# Earlier results as cited in PMC13598549.
# Biological target: TEAD (Homo sapiens) (UniProt P28347)
# Sequence of UniProt P28347 (P28347 whole entry): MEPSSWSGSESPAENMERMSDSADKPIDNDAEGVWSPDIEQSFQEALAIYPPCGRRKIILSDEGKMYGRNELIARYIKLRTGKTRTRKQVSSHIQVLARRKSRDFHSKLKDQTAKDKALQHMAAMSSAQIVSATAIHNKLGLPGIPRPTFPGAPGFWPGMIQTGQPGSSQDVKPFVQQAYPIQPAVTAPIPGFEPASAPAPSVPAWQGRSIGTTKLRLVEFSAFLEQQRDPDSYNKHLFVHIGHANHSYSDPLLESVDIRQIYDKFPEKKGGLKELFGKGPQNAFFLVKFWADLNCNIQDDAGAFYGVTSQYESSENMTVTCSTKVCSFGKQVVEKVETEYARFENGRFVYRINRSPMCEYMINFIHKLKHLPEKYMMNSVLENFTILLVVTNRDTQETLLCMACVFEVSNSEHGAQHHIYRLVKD
substance,measurement,value
YAP (from UniProt P46937),Kd,40 nM
